Experimental data taken from the DeepSol protein solubility set.

Assay: soluble on expression in E. coli; label from the status in PepcDB or PDB records
With “MSIRSGSRRLELPHLSFPGLLRMNIHKNARLTPLRREEMAVAVFGGRLTKAQAARLYGVSLKIVSRWTERFRISGRAAMTDRSSRPTRSPRQMGQDIVERILHLRRQRLTGKHIAMETGVSPATVSRILRRAKLSRMKDIDPVEPVIRYEYAEPGGLIHLDIKRLGRFERVGHRITGNRTRQSNTRGVGWEYVHVCIDDVSRIAFTDIFPDEKAIMPLEHHHHHH” the “soluble on expression in E. coli” value was “not soluble”. For “MSITAQLAALAGHGIELAKEIFAHGTSLKSKEDLAAVLGFDPTRVGRYQKTAKALFGPTDQPQLRAQAIAIAQKNNFSIDVLALINCKVGRLADAPLREEFRLELHRFAVDNSYTAIKQFANDQLEKRNGPNPARQHSLRYARFSHHPDANGMRYLITSLPDETMTAIEAKLVDKAKAHKSDTISM”, the “soluble on expression in E. coli” value was “not soluble”. In the case of “MSKAFDLVVIGAGSGGLEAGWNAATLYGKRVAVVDVQTSHGPPFYAALGGTCVNVGCVPKKLMVTGAQYMDHLRESAGFGWEFDGSSVKANWKKLIAAKNEAVLDINKSYEGMFNDTEGLDFFLGWGSLESKNVVVVRETADPKSAVKERLQADHILLATGSWPQMPAIPGIEHCISSNEAFYLPEPPRRVLTVGGGFISVEFAGIFNAYKPPGGKVTLCYRNNLILRGFDETIREEVTKQLTANGIEIMTNENPAKVSLNTDGSKHVTFESGKTLDVDVVMMAIGRIPRTNDLQLGNVGVKLTPKGGVQVDEFSRTNVPNIYAIGDITDRLMLTPVAINEGAALVDTVFGNKPRKTDHTRVASAVFSIPPIGTCGLIEEVAAKEFEKVAVYMSSFTPLMHNISGSKYKKFVAKIVTNHSDGTVLGVHLLGDGAPEIIQAVGVCLRLNAKISDFYNTIGVHPTSAEELCSMRTPSYYYVKGEKMEKLPDSNL”, the “soluble on expression in E. coli” value is reported as “soluble”. For “MSKDAVSILFLGIDDNEGRRKNGQTTEHSRTDSMILSTFSPEKRQIRLLSIPRDTISYIPKVGYYDKITHAHAYGGPVAAMDSVEATLNVPVDYYVRVNMDAFVEAVDELGGIYYDVPYDLNEPNTDDSGRIKIKKGYQKLNGDEALAVARTRHHDSDLKRGERQMDLIKLLFQKAKSLDSYDKLDDLVQIVGKNAKHNLTSSEIKSLASMYLSDDIEFKKSQLKGKDDYLQNIYYYNPSVSSIMKYSNILRSDLGLSKITDKDEFLDQRVIKHYGTLIPLTPLDQSLLKNNQKDSSSSDDNNDDSTNSDNNNNIQSSEENSSNSNEGIDQSSQGSTQSDNYNQTNSSNSFNNNQDQMNQIYLEHHHHHH”, the “soluble on expression in E. coli” value was “soluble”. With “MSKDEIKKPVVLIYCDTIEGTNIYLKKICEGLEEEGVPFQIQQVEKVEDSVEVLAQNASRNSNLGIGIGVLKNGDCALLQRRLPPNLPIQTLRGEKYDPNLYRNIGINAARLAKNLPLVFA” the “soluble on expression in E. coli” value was “not soluble”. For “MSKDYQSLAKLSPFELKDELIKIASSDGNRLMLNAGRGNPNFLATTPRRAFFRLGLFAAAESELSYSYMTTVGVGGLAKIDGIEGRFERYIAENRDQEGVRFLGKSLSYVRDQLGLDPAAFLHEMVDGILGCNYPVPPRMLNISEKIVRQYIIREMGADAIPSESVNLFAVEGGTAAMAYIFESLKLNGLLKAGDKVAIGMPVFTPYIEIPELAQYALEEVAINADPSLNWQYPDSELDKLKDPAIKIFFCVNPSNPPSVKMDQRSLERVRNIVAEHRPDLMILTDDVYGTFADDFQSLFAICPENTLLVYSFSKYFGATGWRLGVVAAHQQNVFDLALDKLQESEKVALDHRYRSLLPDVRSLKFIDRLVADSRAVALNHTAGLSTPQQVQMALFSLFALMDEADEYKHTLKQLIRRRETTLYRELGMPPLRDENAVDYYTLIDLQDVTAKLYGEAFSEWAVKQSSTGDMLFRIADETGIVLLPGRGFGSNRPSGRASLANLNEYEYAAIGRALRKMADELYAEYSGQAQNLKLAAALEHHHHHH”, the “soluble on expression in E. coli” value was “soluble”. In the case of “MSKEYHIRELIMRLARLDVSESWAEDLNPAQRAVLEYLSRANKFSRSPSHVAAFLGTTRGTISQTFKALLQKNYVTEKRSQSDKRVISFDLTQKGRALLARPRLLISGLESLDSSEQNALLSTLQSTLNSLLEQNKGQPFGLCKECRHFTSSNGGGYCNLLSEKLAPPETEQICHEQDPL”, the “soluble on expression in E. coli” value is reported as “not soluble”. For “MSKFTIGPLPCKNPESFTKLSAKKDTVRKTEPVEVVCRNVEGENNGECYKIKAPKTPFIINHLEKNYIPKPKETTKKRRAGEAGGVKREHSTSESDDQLEDANQPSTSSQQSSSRKKQRNQQDI”, the “soluble on expression in E. coli” value was “not soluble”.
